Publication PMC2553845, “A Specificity Map for the PDZ Domain Family” (PLoS Biology, 2008)
Where no end group is shown, it is not given here.

Experiments:
Test in all cases: ELISA; competition ELISA as described in ref. 20: synthetic peptide in solution blocks PDZ domain binding to immobilized peptide; IC50 = peptide concentration that blocked 50% of binding; no detectable interaction = IC50 > 500 μM
Conditions in all cases: both partners purified
SCRIB PDZ domain 1 = molecular target: T1, SCRIB PDZ domain 1 (human, UniProt Q14160 728-815)
T1 construct: also called SCRIB-1

SCRIB PDZ domain 2 = molecular target: T2, SCRIB PDZ domain 2 (human, UniProt Q14160 862-950)
T2 construct: also called SCRIB-2
T2 sequence (looked up): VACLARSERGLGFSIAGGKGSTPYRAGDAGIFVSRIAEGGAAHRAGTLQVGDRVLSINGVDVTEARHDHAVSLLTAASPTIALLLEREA

SCRIB PDZ domain 3 = molecular target: T3, SCRIB PDZ domain 3 (human, UniProt Q14160 1004-1093)
T3 construct: also called SCRIB-3
T3 sequence (looked up): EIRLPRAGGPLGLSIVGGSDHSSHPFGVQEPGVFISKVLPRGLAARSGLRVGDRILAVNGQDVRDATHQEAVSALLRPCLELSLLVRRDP

Measured: IC50

T1 sequence (Q14160 728-815): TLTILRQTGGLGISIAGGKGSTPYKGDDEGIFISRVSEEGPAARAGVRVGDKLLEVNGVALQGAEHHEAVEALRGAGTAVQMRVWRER

B1: designed nonbinding peptide Π–RSWFEAWA (peptide 15) (peptide)
chain: RQIKIWFQNRRMKWKKRSWFEAWA
modifications: not fully specified (C-terminus)
> 500 µM: SCRIB PDZ domain 1 | SCRIB PDZ domain 2 | SCRIB PDZ domain 3
